Measured values from patent US20220177593A1 (CELLDEX THERAPEUTICS, published 2022).

T1: purified extracellular domain of human Axl (human, UniProt P30530 26-451)
T1 construct: extracellular domain; also called human Axl-ECD; Axl-ECD
T1 sequence (looked up): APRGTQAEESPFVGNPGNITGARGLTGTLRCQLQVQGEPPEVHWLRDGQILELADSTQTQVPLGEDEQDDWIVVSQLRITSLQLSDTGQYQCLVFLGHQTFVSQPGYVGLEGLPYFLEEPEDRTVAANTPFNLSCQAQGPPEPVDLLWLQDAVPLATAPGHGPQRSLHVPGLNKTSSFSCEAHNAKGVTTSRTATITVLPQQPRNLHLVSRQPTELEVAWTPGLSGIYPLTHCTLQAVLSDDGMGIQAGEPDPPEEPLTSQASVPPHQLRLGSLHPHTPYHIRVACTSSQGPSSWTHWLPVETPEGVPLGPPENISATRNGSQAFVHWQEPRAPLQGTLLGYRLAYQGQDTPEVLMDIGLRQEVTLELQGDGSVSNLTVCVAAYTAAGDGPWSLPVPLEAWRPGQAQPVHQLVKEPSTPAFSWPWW

T2: human Axl expressed on the surface of cells (human, UniProt P30530 26-894)
T2 construct: whole, on cells; also called huAxl; Axl on H1299 cells
T2 sequence (looked up): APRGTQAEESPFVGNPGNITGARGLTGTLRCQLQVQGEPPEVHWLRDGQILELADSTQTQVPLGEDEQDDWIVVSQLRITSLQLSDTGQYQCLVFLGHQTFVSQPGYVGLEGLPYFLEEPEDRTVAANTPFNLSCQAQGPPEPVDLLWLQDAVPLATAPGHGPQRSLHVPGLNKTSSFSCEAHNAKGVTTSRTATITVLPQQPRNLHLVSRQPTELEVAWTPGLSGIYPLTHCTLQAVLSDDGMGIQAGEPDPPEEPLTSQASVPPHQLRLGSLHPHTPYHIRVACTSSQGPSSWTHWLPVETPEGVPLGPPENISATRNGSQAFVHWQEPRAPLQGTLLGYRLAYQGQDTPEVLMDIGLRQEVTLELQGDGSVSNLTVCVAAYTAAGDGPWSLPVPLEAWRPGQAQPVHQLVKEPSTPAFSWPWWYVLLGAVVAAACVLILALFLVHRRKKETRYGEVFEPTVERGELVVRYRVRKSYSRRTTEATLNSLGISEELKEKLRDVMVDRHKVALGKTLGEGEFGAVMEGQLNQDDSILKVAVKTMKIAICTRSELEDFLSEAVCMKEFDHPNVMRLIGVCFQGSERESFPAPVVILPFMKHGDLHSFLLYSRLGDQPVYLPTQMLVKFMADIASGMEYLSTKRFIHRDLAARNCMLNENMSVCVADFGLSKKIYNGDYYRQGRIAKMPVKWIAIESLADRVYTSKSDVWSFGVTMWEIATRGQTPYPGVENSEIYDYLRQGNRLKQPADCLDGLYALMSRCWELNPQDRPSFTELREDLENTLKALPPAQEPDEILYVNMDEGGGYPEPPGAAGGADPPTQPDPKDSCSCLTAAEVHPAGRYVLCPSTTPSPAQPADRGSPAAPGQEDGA

T3: recombinant human Axl-msFc (human, UniProt P30530 26-449, limits assumed)
T3 construct: also called soluble human Axl-msFc; huAxl; not shown: mouse Fc (msFc)
T3 sequence (looked up): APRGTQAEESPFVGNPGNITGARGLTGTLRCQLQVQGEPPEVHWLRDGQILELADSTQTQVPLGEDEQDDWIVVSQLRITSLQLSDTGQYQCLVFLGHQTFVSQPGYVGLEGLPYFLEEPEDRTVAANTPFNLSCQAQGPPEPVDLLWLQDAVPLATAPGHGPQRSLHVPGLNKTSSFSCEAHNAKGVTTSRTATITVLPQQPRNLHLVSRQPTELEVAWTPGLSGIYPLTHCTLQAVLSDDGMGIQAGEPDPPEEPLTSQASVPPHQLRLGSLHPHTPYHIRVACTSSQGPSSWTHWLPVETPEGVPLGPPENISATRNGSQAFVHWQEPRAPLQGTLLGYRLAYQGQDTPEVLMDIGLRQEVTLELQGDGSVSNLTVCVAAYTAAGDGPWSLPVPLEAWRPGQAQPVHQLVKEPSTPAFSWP

T4: purified extracellular domain of human MerTK (human, UniProt Q12866 21-505)
T4 construct: extracellular domain; also called human MerTK-ECD
T4 sequence (looked up): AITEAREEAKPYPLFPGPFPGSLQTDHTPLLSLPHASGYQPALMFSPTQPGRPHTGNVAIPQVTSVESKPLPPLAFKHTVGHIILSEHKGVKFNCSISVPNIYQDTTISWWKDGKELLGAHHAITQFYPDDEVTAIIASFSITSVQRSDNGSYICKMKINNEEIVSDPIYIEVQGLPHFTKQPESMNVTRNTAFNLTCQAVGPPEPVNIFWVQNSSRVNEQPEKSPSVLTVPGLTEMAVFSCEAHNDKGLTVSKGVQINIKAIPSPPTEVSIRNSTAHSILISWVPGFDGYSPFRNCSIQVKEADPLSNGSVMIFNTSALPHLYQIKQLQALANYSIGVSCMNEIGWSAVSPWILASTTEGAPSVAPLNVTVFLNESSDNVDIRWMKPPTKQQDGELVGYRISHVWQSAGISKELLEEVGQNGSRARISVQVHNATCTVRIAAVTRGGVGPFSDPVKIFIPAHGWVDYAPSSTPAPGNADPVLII


Legend:
[1] = biological target: T5, Domain 1 (Ig-like domain 1) of the human Axl extracellular domain (human, UniProt P30530 34-137); experiment: ELISA on purified Axl domains coated on plates, Ab301 at 5 ug/mL
T5 construct: The tag is not described; also called D1; Domain 1 of the Axl-ECD alone
Protocol: (§1) Human Axl domains (D1-D4) of the Axl extracellular domain (Axl-ECD) were expressed in Exi293 cells, purified by nickel affinity chromatography and buffer exchanged to PBS. […] Ab301 was added at 5 μg/mL for 1 hour at room temperature, washed, and subsequently incubated with an HRP- conjugated goat anti-human antibody (Jackson Immunoresearch). Plates were washed and incubated with TMB (Pierce Biotechnology).

[2] = biological target: T1, purified extracellular domain of human …; experiment: as above
Protocol: as §1

[3] = biological target: T2, human Axl expressed on the surface of …; experiment: flow cytometry on L cells expressing human Axl
Protocol: (§2) The ability of anti-Axl human antibodies to bind to Axl on cells expressing human Axl on their surface was investigated by flow cytometry as follows: Purified antibodies were incubated with either L cells expressing human Axl on their surface or H1299 cells at room temperature on a plate shaker. After 20 minutes, the cells were washed with PBS containing 0.1% BSA and 0.05% NaN₃ (PBA), and the bound antibodies were detected by incubating the cells with a phycoerythrin (PE)-labeled goat anti-human IgG Fc-specific probe. The excess probe was washed from the cells with PBA and the cell-associated fluorescence was determined by analysis using a FACSCanto II™ instrument (BD Biosciences, NJ, USA) according to the manufacturer's directions.

[4] = biological target: T3, recombinant human Axl-msFc; experiment: ELISA, plates coated with recombinant human Axl-msFc
Protocol: Binding of Ab301 and four humanized antibody subclones to human Axl was determined by ELISA using the following protocol: Microtiter plates were coated with recombinant human Axl-msFc, in phosphate-buffered saline (PBS), and then blocked with 5% bovine serum albumin (BSA) in PBS. Protein A purified human monoclonal antibodies and an isotype control were added at various concentrations and incubated at 37° C. The plates were washed with PBS/Tween and then incubated with a goat-anti-human IgG Fc-specific polyclonal reagent conjugated to horseradish peroxidase (HRP) at 37° C. After washing, the plates were developed with HRP substrate, and analyzed at OD 450-650 using a microtiter plate reader.

[5] = biological target: T4, purified extracellular domain of human …; experiment: ELISA, plates coated with 100 ng purified extracellular domain, titration of Ab301
Protocol: Binding of Ab301 to human Axl extracellular domain and its lack of binding to human MerTK extracellular domain was determined using the following protocol: Nunc MaxiSorb™ plates (Thermo Fisher Scientific) were coated with 100 ng of the purified extracellular domain of human Axl or human MerTK in […] borate buffer, overnight at 4° C. Plates were washed and blocked for 1 hour at room temperature with Tris-buffered saline (TBS) with 1% BSA. A titration of Ab301 was added to the coated plates for 1 hour at room temperature, followed by washing and incubation with an HRP-conjugated goat anti-human antibody (Jackson Immunoresearch) for 1 hour at room temperature. Washed plates were incubated with 3,3′,5,5′-Tetramethylbenzidine (TMB) substrate (Thermo Fisher Scientific) and read using a Biotek® plate reader. Data are plotted as the optical density at 450 nm (Abs450) as a function of the log-transformed molar concentration of Ab301, and fit to a 4-parameter binding curve using GraphPad Prism™.

[6] = biological target: T2, human Axl expressed on the surface of …; experiment: flow cytometry on H1299 cells
Protocol: as §2

| binding result [1] | binding result [2] | binding result [3] | binding result [4] | binding result [5] | binding result [6] | Binder |
| --- | --- | --- | --- | --- | --- | --- |
| binds | binds | binds | binds | no binding | – | Ab301 (antibody, human IgG1, V domains shown, also called anti-Axl antibody Ab301) VH: EVKLEASGGGLVQPGMSVKLSCTTSGFTFSDYWMEWVRQAPGKGLEWVAEIRNKVNNYATYYGKSVKGRFTISRDDSKSIVYLQMNSIRSEDTGIYYCNTLRLFAYWGQGTLVTVSA VL: DIVMTQAPLSISVTPGESPSMSCRSSKSLLHRNGITYVYWYLQKPGKSPQLLIYRMSTLASGVPDRFSGSGSETDFTLKINKVEAEDVGIYYCGQLLENPYTFGAGTRLEIK |
| – | – | – | binds | – | binds | Ab302 (antibody, V domains shown, Humanized) VH: EVQLVESGGGLVKPGGSLKLSCAASGFTFSDYWMEWVRQAPGKGLEWVAEIRNKVNNYATYYGKSVKGRFTISRDDSKNTLYLQMNSLKTEDTAVYYCNTLRLFAYWGQGTLVTVSS VL: DIQMTQSPSSLSASVGDRVTITCRSSKSLLHRQGITYVYWYQQKPGKVPKLLIYRMSTLASGVPSRFSGSGSGTDFTLTISSLQPEDVATYYCGQLLENPYTFGQGTKLEIK |
| – | – | – | binds | – | binds | Ab304 (antibody, V domains shown, Humanized) VH: EVQLVESGGGLVQPGGSLRLSCAASGFTFSDYWMEWVRQAPGKGLEWVGEIRNKVNNYATYYGKSVKGRFTISRDESKNSLYLQMNSLKTEDTAVYYCNTLRLFAYWGQGTTVTVSS VL: DIQMTQSPSSLSASVGDRVTITCRSSKSLLHRQGITYVYWYQQKPGKVPKLLIYRMSTLASGVPSRFSGSGSGTDFTLTISSLQPEDVATYYCGQLLENPYTFGQGTKLEIK |
| – | – | – | binds | – | binds | Ab303 (antibody, V domains shown, Humanized) VH: EVQLVESGGGVVQPGRSLRLSCAASGFTFSDYWMEWVRQAPGKGLEWVAEIRNKVNNYATYYGKSVKGRFTISRDNSKNTLYLQMNSLRAEDTAVYYCNTLRLFAYWGQGTLVTVSS VL: DIQMTQSPSSLSASVGDRVTITCRSSKSLLHRQGITYVYWYQQKPGKVPKLLIYRMSTLASGVPSRFSGSGSGTDFTLTISSLQPEDVATYYCGQLLENPYTFGQGTKLEIK |
| – | – | – | binds | – | binds | Ab305 (antibody, V domains shown, Humanized) VH: EVQLVESGGGLVQPGRSLRLSCTASGFTFSDYWMEWVRQAPGKGLEWVGEIRNKVNNYATYYGKSVKGRFTISRDDSKSIAYLQMNSLKTEDTAVYYCNTLRLFAYWGQGTLVTVSA VL: DIQMTQSPSSLSASVGDRVTITCRSSKSLLHRQGITYVYWYQQKPGKVPKLLIYRMSTLASGVPSRFSGSGSGTDFTLTISSLQPEDVATYYCGQLLENPYTFGQGTKLEIK |
